Source: the DeepSol protein solubility set

Experiment: soluble on expression in E. coli; label from the status in PepcDB or PDB records

| Sequence | soluble on expression in E. coli |
| --- | --- |
| MAIPAFHPGELNVYSAPGDVADVSRALRLTGRRVMLVPTMGALHEGHLALVRAAKRVPGSVVVVSIFVNPMQFGAGGDLDAYPRTPDDDLAQLRAEGVEIAFTPTTAAMYPDGLRTTVQPGPLAAELEGGPRPTHFAGVLTVVLKLLQIVRPDRVFFGEKDYQQLVLIRQLVADFNLDVAVVGVPTVREADGLAMSSRNRYLDPAQRAAAVALSAALTAAAHAATAGAQAALDAARAVLDAAPGVAVDYLELRDIGLGPMPLNGSGRLLVAARLGTTRLLDNIAIEIGTFAGTDRPDGYRA | soluble |
| MAISDGRTGNTRQAEALASTLVGSLYTTQVLKPRIPWRWTAPYCLPGAKHAFGTTFSHALRYPPFLAIGCGRQAALATRLLHKQGACVVQILDPRLPARHWDLLVVPEHDHIRGHNVLTLLGSLHPVNDVWLATGRAQFPELGDLPGQRVALLVGAPTPQAPWQPAQLEELCTALVKGLSCGGSVLATTSRRTPPELATQLRKHLATIPGLFWNNTDKGANPYPGILGWADAIIATADSVNLLSEACATRAPVTAAFANQTRGRIRCFIDALGARLCTVENLLAIDTLAQPLRETERIANEVRAWFGMV | not soluble |
| MAIVLLVLHVCTGLRGSPVSGRVRMAVDSGIYLAPCSNNDAQEHLKRTVINGVDRDDYGQYTNVGFGDSVSIWGVKGGNESHWQDIDAGDYLFFYTGDETYSQVAEVLATDQNEGLAEHLWPGFEDTWEFIIYLNEPIPVNIDSNEIADYAGYKQNYILGFQSLRGSAVDEINDEYGSIEGYINANRTDGNHIQTSGGSQDPDEGDDSVVDEVLDEADRDEEAYANIARQLEEVGQVVFYGPPGTGKTYNAQQFARWWLHNLQSEPRESQVRSVTFHPSYTYEDFIEGLTANATENSVSYDIKPGKFKAICEDARVAYQETGPNEEPPRYVLLIDEINRGNLAQIFGETITLLEEDKRGTLHVDLAHSGGSFTIPPNLYVIGTMNTADRSVALVDAALRRRFRFIDFPPDYGVARSRFGFDTEYDLTSAARGERSDLEQLQALSIQAVEQLNETIIELPDLGKGKQIGHSYLLVDPDDEQALVDAWRYEILPLLEEYFYGQLSRIRQELFNQNGDSLVDWEREQIKDFDPETLRESLQAIVNAGLEHHHHHH | not soluble |
| MAIVNATDQTFAAETKDGLTLVDFWAPWCGPCRMIAPVLEELDREMGDKVKIVKVNVDENQETASKFGVMSIPTLLVFKNGELVDKAIGYQPKEALVQLVGKHVS | soluble |
| MAKEGSVAPKERINVTFKPATGGNQEEIELPLKLLAIGDYTHRRDERKVEDRKPISIDKTTFDEVLAKQELELTLSVPNRLQDEEGVAEELPVKLRVNSMKDFNPASLVEQVPELKKLMELRDALVALKGPLGNAPAFRKAIEGVLADDESRGRVLGELGLKAPAPDA | not soluble |
| MAKKKKKKSFNVTRPTDPPVYPVTVPILGHIIQFGKSPLGFMQECKRQLKSGIFTINIVGKRVTIVGDPHEHSRFFLPRNEVLSPREVYSFMVPVFGEGVAYAAPYPRMREQLNFLAEELTIAKFQNFVPAIQHEVRKFMAANWDKDEGEINLLEDCSTMIINTACQCLFGEDLRKRLDARRFAQLLAKMESSLIPAAVFLPILLKLPLPQSARCHEARTELQKILSEIIIARKAAAVNKDSSTSDLLSGLLSAVYRDGTPMSLHEVCGMIVAAMFAGQHTSSITTTWSMLHLMHPANVKHLEALRKEIEEFPAQLNYNNVMDEMPFAERCARESIRRDPPLLMLMRKVMADVKVGSYVVPKGDIIACSPLLSHHDEEAFPEPRRWDPERDEKVEGAFIGFGAGVHKCIGQKFGLLQVKTILATAFRSYDFQLLRDEVPDPDYHTMVVGPTASQCRVKYIRRKAAAAHHHHHHHH | soluble |
| MAKKTSSKGKLPPGPTPLPIIGNMLQIDVKDICKSFTNFSKVYGPVFTVYFGMNPIVVFHGYEAVKEALIDNGEEFSGRGNSPISQRITKGLGIISSNGKRWKEIRRFSLTTLRNFGMGKRSIEDRVQEEAHCLVEELRKTKASPCDPTFILGCAPCNVICSVVFQKRFDYKDQNFLTLMKRFNENFRILNSPWIQVCNNFPLLIDCFPGTHNKVLKNVALTRSYIREKVKEHQASLDVNNPRDFIDCFLIKMEQEKDNQKSEFNIENLVGTVADLFVAGTETTSTTLRYGLLLLLKHPEVTAKVQEEIDHVIGRHRSPCMQDRSHMPYTDAVVHEIQRYSDLVPTGVPHAVTTDTKFRNYLIPKGTTIMALLTSVLHDDKEFPNPNIFDPGHFLDKNGNFKKSDYFMPFSAGKRICAGEGLARMELFLFLTTILQNFNLKSVDDLKNLNTTAVTKGIVSLPPSYQICFIPVHHHH | soluble |
| MAKKVAVLAVNPVNGCGLFQYLEAFFENGISYKVFAVSDTKEIKTNSGMVLIVDDVIANLKGHEDEFDALVFSCGDAVPVFQQYANQPYNVDLMEVIKTFGEKGKMMIGHCAGAMMFDFTGITKGKKVAVHPLAKPAIQNGIATDEKSEIDGNFFTAQDENTIWTMLPKVIEALKLEHHHHHH | soluble |
| MAKNIPFKLILEKAKDYQADMTRFLRDMVAIPSESCDEKRVVHRIKEEMEKVGFDKVEIDPMGNVLGYIGHGPRLVAMDAHIDTVGIGNIKNWDFDPYEGMETDELIGGRGTSDQEGGMASMVYAGKIIKDLGLEDEYTLLVTGTVQEEDCDGLCWQYIIEQSGIRPEFVVSTEPTDCQVYRGQRGRMEIRIDVQGVSCHGSAPERGDNAIFKMGPILGELQELSQRLGYDEFLGKGTLTVSEIFFTSPSRCAVADSCAVSIDRRLTWGETWEGALDEIRALPAVQKANAVVSMYNYDRPSWTGLVYPTECYFPTWKVEEDHFTVKALVNAYEGLFGKAPVVDKWTFSTNGVSIMGRHGIPVIGFGPGKEPEAHAPNEKTWKSHLVTCAAMYAAIPLSWLATE | soluble |
| MAKNTSCGVQLRIRGKVQGVGFRPFVWQLAQQLNLHGDVCNDGDGVEVRLREDPEVFLVQLYQHCPPLARIDSVEREPFIWSQLPTEFTIR | soluble |
| MAKQTIIVMSDSHGDSLIVEEVRDRYVGKVDAVFHNGDSELRPDSPLWEGIRVVKGNMDFYAGYPERLVTELGSTKIIQTHGHLFDINFNFQKLDYWAQEEEAAICLYGHLHVPSAWLEGKILFLNPGSISQPRGTIRECLYARVEIDDSYFKVDFLTRDHEVYPGLSKEFSR | soluble |
| MAKRVIIAGGNIAGTIVANRLVQKLEHEVNKGDVEIVALNKSDEHIYLPGQLLVGFGLETPGELVRKESELLDPRIKFLHGQKGTISKIDVANHSVQTADGVSHSYDYLVITTGVDYTWDEIPGYRSAAHTVYEYDDAIKMREALEKFDGGTIVVNTAKLPHRCPVAPLEVTLILDDYLRKRGIRDKTKIIYTYPVQGVFGRPITNKFMLRLFEQRGIEVHSPFTVTSVDPNNKVIESQEGEKLKFDMLIGIPPNMGAKVIEDSGIGDRRRWVPTDKFTLRMKDHSNVYVMGDATDLPVSKAGSTADFESYTVAHNIANDIKGNLGVKHYGGDVLCYIATGTDQATYIRFSYTMNESPPPPSYVHWWGKIMYNKMYWTVTAKAVVLEHHHHHH | not soluble |
| MAKSNSNNSHNEADTLSSLLSSVGSSYDGESDSTFVSTGTTPSSSRRSRLDSFLSTTSSSKSRPRIKSKLPRSSSSGFSGTGSERSISSKRSKIGNTSGNRNKISQSARRRLLQAEIESRRNRSNKSPGSSRKSILKKSPMKKRRSLSRKSLPKKEHIPPVQKFAIIKNPAARNQVRGFVAEYAQDPEFEAFELLVDGIPFVALSLMNAHPDLRGRFKPVPPPTPMKKHTPGINSPRKRPLRRESISSVNSKSVRFTDEGSSFSKRARKSSSGDVDSSIRELGETVSDAMIDTGRQYNDLWKDRAHSVEK | not soluble |
| MAKVSLEKDRIKFLLVEGVHQSAVDNLRAAGYSNIEYHKGALDAESLKASIRDAHFIGIRSRTHLSEDVFAAAEKLVAVGCFCIGTNQVDLKAATKRGVPVFNAPFSNTRSVAEMVLGELLLMFRGIPSANAKAHRGEWNKLAVGSFEARGKKLGIIGYGHIGTQLGILAESIGMKVFFYDIENKLSLGNAQQVRQLSDLLNMSDVVSLHVPENHTTKNMIGAEQLAQMKPGALLINASRGTVVDIPALCDALSSNHLSGAAIDVFPEEPATNKDPFNSPLCEFDNVLLTPHIGGSTQEAQENIGDEVAGKLAKYSDNGSTLSAVNFPEVSLPAHGDNTRRLLHIHENRPGILTSINTIFAEQNVNIAAQYLQTSADIGYVVIDVETDDADNAEKALQAMKAIPGTIRARLLY | not soluble |
| MAKYIEIANTLRTSISNHEYKNNDPFPDQQALSKKFSTSRMTIQKALNILKTEGLIYSKQGSGTFVSSNADLIEQTDLEINQYIGTTDLFGKTHKINSKIIKFTIRYPDKSEQNALRISKKDLIYDITRLRIVDEEPYVLEYTKMPVKVIPGISDDILKKSIYHYIKSDLNLKIGSAFRKIRADKPNLFDKKFLNCKNEDPILEITQTAFLNSDIPFEFSRVRYRYDKGNMVVFVKSSFER | not soluble |
| MALELSDIRQQITQIDRSLLKLLSERHRLAFDVVRSKEISQKSLRDVEREQQLLQELVQFAENENYQLEAQYITSIFQKIIEDSVLTQQVYLQNKLNEQRNQNLHIAFLGKRGSYSNLAARNYAARYQKQFVELGCQSFEQVFEKVQTGEADFGVLPLENTTSGAINEVYDLLQHTDLSLVGELAYPIKHCVLVNDKTDLNQIDTLYSHPQVIQQCSQFIHSLDRVHIEYCESSSHAMQLVASLNKPNIAALGNEDGGKLYGLSVLKTNIANQENNITRFIVVAKEPREVSSQIPTKTLLLMTTSQQAGALVDALLVFKKHQINMTKLESRPIYGKPWEEMFYLEIEANIHHPDTKQALEELKNYSNYLKILGCYPSEIVKPVSV | not soluble |
| MALGPLVTGLYDVQAFKFGDFVLKSGLSSPIYIDLRGIVSRPRLLSQVADILFQTAQNAGISFDTVCGVPYTALPLATVICSTNQIPMLIRRKETKDYGTKRLVEGTINPGETCLIIEDVVTSGSSVLETVEVLQKEGLKVTDAIVLLDREQGGKDKLQAHGIRLHSVCTLSKMLEILEQQKKVDAETVGRVKRFIQEAHHHHHH | soluble |
| MALLEICCYSMECALTAQRNGADRIELCAAPKEGGLTPSFGVLRSVREHITIPVHPIIRPRGGDFYYTDGEFAAMLEDIRLVRELGFPGLVTGVLTVDGDVDMSRMEKIMAAAGPLAVTFHRAFDMCANPFNALKNLADAGVARVLTSGQKADAAQGLSIIMELIAQGDAPTIMAGAGVRANNLQNFLDAGVREVHSSAGVLLPSPMRYRNQGLSMSADIQADEYSRYRVEGAAVAEMKGIIVRHQAKLEHHHHHH | soluble |
| MALLLVMGIPASGKSTFRRKIQTAHRELLESTSFDDFRMMRTRSSDKNARQTRKSFECHVESCISESTSKIYVIEDIFYLKSMRHPFQKIAKRHGLQFGIIFLKVGIVEALRRNSHRTGIEKQKNETIRKIFEKMEDPDEILENSIVLETDEVEIDVEVVMNKLKFDFTAKKPIVPEVSLKKSHIQKPPPPSKLESLDVLTRRLVSELMQNDKTMNGRKLSDARKKLLIDLSGNLEISNENDPKFLYDLKLKLIEFYDK | not soluble |
| MALNDNPIPKSVPLHPKSGKYFHNLHARDLSNIYQQCYKQIDETINQLVDSTSPSTIGIEEQVADITSTYKLLSTYESESNSFDEHIKDLKKNFKQSSDACPQIDLSTWDKYRTGELTAPKLSELYLNMPTPEPATMVNNTDTLKILKVLPYIWNDPTCVIPDLQNPADEDDLQIEGGKIELTCPITCKPYEAPLISRKCNHVFDRDGIQNYLQGYTTRDCPQAACSQVVSMRDFVRDPIMELRCKIAKMKESQEQDKRSSQAIDVL | soluble |
